Data published in PMC5850324, “Interactions between the Hepatitis C Virus Nonstructural 2 Protein and Host Adaptor Proteins 1 and 4 Orchestrate Virus Release” (mBio, 2018).

B1: GLuc2-NS2 (hepatitis C virus nonstructural 2 protein, wild type) [hepatitis C virus (J6/JFH genome)] / GLuc1-tagged μ subunit of the AP-1A complex [not stated] (parent)
chain 1: YDASVHGQIGAALLVLITLFTLTPGYKTLLSRFLWWLCYLLTLAEAMVQEWAPPMQVRGGRDGIIWAVAIFCPGVVFDITKWLLAVLGPAYLLKGALTRVPYFVRAHALLRMCTMVRHLAGGRYVQMVLLALGRWTGTYIYDHLTPMSDWAANGLRDLAVAVEPIIFSPMEKKVIVWGAETAACGDILHGLPVSARLGREVLLGPADGYTSKGWSLL
chain 2: MSASAVYVLDLKGKVLICRNYRGDVDMSEVEHFMPILMEKEEEGMLSPILAHGGVRFMWIKHNNLYLVATSKKNACVSLVFSFLYKVVQVFSEYFKELEEESIRDNFVIIYELLDELMDFGYPQTTDSKILQEYITQEGHKLETGAPRPPATVTNAVSWRSEGIKYRKNEVFLDVIESVNLLVSANGNVLRSEIVGSIKMRVFLSGMPELRLGLNDKVLFDNTGRGKSKSVELEDVKFHQCVRLSRFENDRTISFIPPDGEFELMSYRLNTHVKPLIWIESVIEKHSHSRIEYMIKAKSQFKRRSTANNVEIHIPVPNDADSPKFKTTVGSVKWVPENSEIVWSIKSFPGGKEYLMRAHFGLPSVEAEDKEGKPPISVKFEIPYFTTSGIQVRYLKIIEKSGYQALPWVRYITQNGDYQLRTQ
B2: GLuc2-NS2 (hepatitis C virus nonstructural 2 protein, wild type) [hepatitis C virus (J6/JFH genome)] / GLuc1-tagged μ subunit of the AP-1B complex [not stated] (parent)
chain 1: B1 chain 1
chain 2: MSASAVFILDVKGKPLISRNYKGDVAMSKIEHFMPLLVQREEEGALAPLLSHGQVHFLWIKHSNLYLVATTSKNANASLVYSFLYKTIEVFCEYFKELEEESIRDNFVIVYELLDELMDFGFPQTTDSKILQEYITQQSNKLETGKSRVPPTVTNAVSWRSEGIKYKKNEVFIDVIESVNLLVNANGSVLLSEIVGTIKLKVFLSGMPELRLGLNDRVLFELTGRSKNKSVELEDVKFHQCVRLSRFDNDRTISFIPPDGDFELMSYRLSTQVKPLIWIESVIEKFSHSRVEIMVKAKGQFKKQSVANGVEISVPVPSDADSPRFKTSVGSAKYVPERNVVIWSIKSFPGGKEYLMRAHFGLPSVEKEEVEGRPPIGVKFEIPYFTVSGIQVRYMKIIEKSGYQALPWVRYITQSGDYQLRTS

Variants of: B1
Assay: PCA (protein-fragment complementation assay)
Conditions: with GLuc1-tagged μ subunit of the AP-1A complex; parent: 1; read off a plot

Variant | ratio to parent
chain 1 D207A | 0.74
chain 1 L217A | 0.68
chain 1 L202A L217A | 0.38
chain 1 L202A | 0.71
chain 1 E200A | 1
chain 1 L216A | 0.56
chain 1 L203A | 0.67
chain 1 L202A L203A L216A L217A | 0.33

Variants of: B2
Assay: PCA (protein-fragment complementation assay)
Conditions: with GLuc1-tagged μ subunit of the AP-1B complex; parent: 1; read off a plot

Variant | ratio to parent
chain 1 L203A | 0.67
chain 1 L202A L203A L216A L217A | 0.47
chain 1 E200A | 0.97
chain 1 L216A | 0.77
chain 1 L217A | 0.76
chain 1 D207A | 0.79
chain 1 L202A | 0.8
chain 1 L202A L217A | 0.55
